Measurements published in patent US20170112926A1.

Biological target: hTEM8-AP (UniProt Q9H6X2)
Test: Biacore affinity measurement of Fab

Sequence of hTEM8-AP (Q9H6X2 33-321): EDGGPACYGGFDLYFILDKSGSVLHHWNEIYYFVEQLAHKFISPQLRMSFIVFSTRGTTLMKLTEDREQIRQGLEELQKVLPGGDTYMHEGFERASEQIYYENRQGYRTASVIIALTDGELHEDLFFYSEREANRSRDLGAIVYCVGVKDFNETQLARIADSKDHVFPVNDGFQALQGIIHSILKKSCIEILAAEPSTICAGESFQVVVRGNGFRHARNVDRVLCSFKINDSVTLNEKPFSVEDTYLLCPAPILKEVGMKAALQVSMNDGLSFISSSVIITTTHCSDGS

- Kd: 0.0591 nM
- koff: 0.00018 s⁻¹
- kon: 3.05e+06 M⁻¹ s⁻¹
B1: M825 Fab (anti-TEM8 fragment antigen-binding) (Fab, V domains shown)
VH: QVQLVQSGAEVKKPGTSVKVSCKVPGYTFSSYAISWVRQAPGQGLEWMGGIIPIFGTTNYAQKFQGRVTITGEESTSTVYMELSSLRSEDTAVYYCARDTDYMFDYWGQGTLVTVSS
VL: SSELTQDPVVSVALGETVSITCQGDNLRDFYASWYQQKPGQAPLLVMYGKNRRPSGIPDRFSGSTSGNTLSLTITGAQAEDEADYYCSSRDNSKHVVFGGGTKVTVL
